Measured values: patent CN114989291A (ZHEJIANG ANWEILUO DIAGNOSTIC TECH CO LTD, dated 2022)
“And” between values parts separate entries of the source, which are not always exact repeats. Equal values may be shown once. Read-outs that look alike come from different tables or passages of the source.

What was measured:
[1] = target: 重组的RBD抗原 (SARS-CoV-2 Spike糖蛋白的RBD区域) (SARS-CoV-2, UniProt P0DTC2 319-541)
[2] = target: T1, 全长SARS-CoV-2 S蛋白 (野生型, IVCAS 6.7512, GenBank ID: QHD43416.1) (SARS-CoV-2, UniProt P0DTC2 14-1273); assay: cell-based or functional assay
[3] = target: SARS-CoV-2真病毒的S蛋白 (SARS-CoV-2, UniProt P0DTC2 14-1273); assay: cell-based or functional assay
[4] = target: T1, 全长SARS-CoV-2 S蛋白 (野生型, IVCAS 6.7512, …); assay: cell-based or functional assay; remark: listed apart in the source

B1: 抗SARS-CoV-2全人源化单克隆抗体1B3 (antibody, V domains shown)
VH: VQLVESGGGVVQPGRSLRLSCAASGFTFSSYAMHWVRQAPGKGLEWVAVISYDGSNKYYADSVKGRFTISRDNSKNTLYLQMNSLRAEDTAVYYCAKVAGGPYYYDSSGRDWYFDLWGRGTLVTVSA
VL: DIQMTQSPSSLSASVGDRVSITCRASQSISSFLNWFQQKPGKAPNLLIYAASSLESGVPSRFSGSGSGTDFTLTISSLQPEDFATYYCQQSYSAPPTFGQGTRLEIKR
In the case of B1, the EC50 [1] is reported as 0.0134 µg/mL, the “EC50, 假病毒细胞模型中和活性 (luciferase, ACE2-293T细胞)” value [2] is reported as 25.6 nM and the “EC50, 真病毒感染的细胞模型中和活性 (Vero E6, 结晶紫细胞活率)” value [3] is reported as 16.4 μg/ml and 109 nM. The “EC50, 假病毒细胞模型中和活性 (luciferase, ACE2-293T细胞)” value [4] was 3.86 µg/mL.
